Drawing on the RNAGym collection of RNA variant scans (doi:10.7554/elife.80360), this text covers self-cleavage for 32 variants.

The chains are these.
B1: HDV Ribozyme (parent)
chain: GGCCGGCAUGGUCCCAGCCUCCUCGCUGGCGCCGGCUGGGCAACAUUCCGAGGGGACCGUCCCCUCGGUAAUGGCGAAUGGGACCCA

In the series the parent is B1. Description: self-cleavage, relative activity (ratio to wild type); higher = more cleavage; co-transcriptional.
Consider GGCCGGCAUGGUCCCAGCCGCCUCGCUGGCGCCGGCUGGGCAACAUUCCGAGGGGACCGUCCCCUCGCUAAUGGCGAAUGGGACCCA [U20G G68C], for which the self-cleavage came out at 0.166.

As for GGCCGGCAUGGUCCCAGCAUCCUCGCUGGCGCCGGCUGGGCCACAUUCCGAGGGGACCGUCCCCUCGGUAAUGGCGAAUGGGACCCA [C19A A42C], the self-cleavage is 0.026.

As for GGCCGGCAUGGUCCCAGUCUCCUCGCUGGCGCCGGCUGGGCAACAUUCCGAGGGGACCGUCCCAUCGGUAAUGGCGAAUGGGACCCA [C18U C64A], the self-cleavage was determined as 0.332.

UGCCGGCAUGGUACCAGCCUCCUCGCUGGCGCCGGCUGGGCAACAUUCCGAGGGGACCGUCCCCUCGGUAAUGGCGAAUGGGACCCA [G1U C13A]: the self-cleavage came to 0.321.

As to GGCCGGCAUGGUCCGAGCCUCCUCGCUGGCGCCGGCUGGGCAACAUCCCGAGGGGACCGUCCCCUCGGUAAUGGCGAAUGGGACCCA [C15G U47C], the self-cleavage was 0.128.

Turning to GGCCGGCAUGGUCCCAGCCUCCUCGCUGGGGCCGGCAGGGCAACAUUCCGAGGGGACCGUCCCCUCGGUAAUGGCGAAUGGGACCCA [C30G U37A], the self-cleavage stood at 0.0462.

On to GGCCGGCAUGAUCCCAGCCUCCUCGCUGGCGCCGGCUGGGCAACAUUCCGAGGGGACCGUCCCCUCGGUAAAGGCGAAUGGGACCCA [G11A U72A], for which the self-cleavage is 0.179.

For the variant GGCCGGCAUGGUCCCAGCCUCCUCGAUGGCGCCGGCUGGGCAACAUUCCGAGGGGACCGUCCCCUCGGUAAUGGCGAAUGGGCCCCA [C26A A83C], the self-cleavage was found to be 0.752.

Turning to GGCCGGCAUGGUCCCAGCCUCCUCGCUGGCGCCGGUUGGGCAAUAUUCCGAGGGGACCGUCCCCUCGGUAAUGGCGAAUGGGACCCA [C36U C44U], the self-cleavage came out at 0.197.

For the variant GGCCGGCAUGGUCCCAGCCUCCUCGCUGGCGCCGGCUGGGCAACAUUCCAAGUGGACCGUCCCCUCGGUAAUGGCGAAUGGGACCCA [G50A G53U], the self-cleavage turned out to be 0.727.

For GGCCGGCAUGGUCACAGCCUCCUCGCUGGCGCCGGCUGGGCAACAUUCCGAGGGGACCGUCUCCUCGGUAAUGGCGAAUGGGACCCA [C14A C62U], the self-cleavage was found to be 0.623.

Regarding GGCCGGCAUGGUCCCAGCCUCCUCGCUGGCGCCGGCUGCGCAAAAUUCCGAGGGGACCGUCCCCUCGGUAAUGGCGAAUGGGACCCA [G39C C44A], the self-cleavage turned out to be 0.271.

As to GGCCGGCAUGGUCCCAGCCUCCACGCUGGCGCCGGCUGGGCAACAUUCCAAGGGGACCGUCCCCUCGGUAAUGGCGAAUGGGACCCA [U23A G50A], the self-cleavage is 1.06.

Take GGCCGGCAUGGUCCCAGCCUCCUCGCUGGCGCCGGCUGGGCAACAUUCCGAGGGGACCGUCCCCUCGGCAAUGGCGAAUGGUACCCA [U69C G82U]: the self-cleavage stood at 0.554.

In the case of GGCCGGGAUGGUCCCCGCCUCCUCGCUGGCGCCGGCUGGGCAACAUUCCGAGGGGACCGUCCCCUCGGUAAUGGCGAAUGGGACCCA [C7G A16C], the self-cleavage amounted to 0.151.

Consider GGCCGGCAUGGUCCCAGCCUCCUCGCUGGCGCCGGCUGGGCAACAUUCCGCGGGGACCGUCCCCUCGGUAAUGGCGAAUGCGACCCA [A51C G81C], for which the self-cleavage is 0.193.

For the variant GGCAGGCAUGGUCCCAGCCUCCUCCCUGGCGCCGGCUGGGCAACAUUCCGAGGGGACCGUCCCCUCGGUAAUGGCGAAUGGGACCCA [C4A G25C], the self-cleavage came to 0.181.

Regarding GGCCGGCAUGGUCCCAGCCUCCUCGCUGGCGCCGGCUGUGCAACAUUCCGAGGGGACCGUCCCCUUGGUAAUGGCGAAUGGGACCCA [G39U C66U], the self-cleavage was 0.724.

GGCCGGCAUGGUCCCAGCCUCCUCACUGGCGCCGGCUGGGCAACAUUCCGAGUGGACCGUCCCCUCGGUAAUGGCGAAUGGGACCCA [G25A G53U]: the self-cleavage is 0.179.

As to GGCCGGCAUGGUCCCAGCCUCCUCGCUGGCGCCGGCUGGGCAACUUUCCGAGGGGACCGUCCCCUCGGUAAUGGUGAAUGGGACCCA [A45U C75U], the self-cleavage is 0.321.

Take GGCCGGCAUGGUCCCAGCCUCCUCGCUGGCGCCGGCUGGGCAACAUUCCGAGGAGACCGUCCCCUCGAUAAUGGCGAAUGGGACCCA [G54A G68A]: the self-cleavage came to 0.895.

In the case of GGCCGGCAUGGUCCAAGCCUCCUCGCUGGCGCCGGCUGGGCAACAUUCCGAGGGGACCGUCCCCUCGGCAAUGGCGAAUGGGACCCA [C15A U69C], the self-cleavage was found to be 0.598.

For GGCCGGCAUGGUCCCAGCCUCCUCGCUGGCGCCGGCUGGGCAGCAUUCCGAGGGGACCGUCCCCCCGGUAAUGGCGAAUGGGACCCA [A43G U65C], the self-cleavage is 0.522.

GCCCGGCAUGGUCCCAGCCUCCUCGCUGGCGCCGGCUGGGCAACAUUCCGAGGGGACCGUCCCCUCGGUAAUCGCGAAUGGGACCCA [G2C G73C]: the self-cleavage was 0.106.

As to GCCCGGCAUGGUCCCAGCCUCCUCGCUGGCGCCGGCUGGGCAACAUUCCGAGGGGACCGUCCCCUCGGUAAAGGCGAAUGGGACCCA [G2C U72A], the self-cleavage was 0.106.

For the variant GGCCGGCAUGGUCCCAGCCUCCUCGCUGGCGCCGGCUGGGCAACAUUCCGAGGGGACCGCCCCCUCGGUAAUGGCGAAUGGGACGCA [U60C C85G], the self-cleavage stood at 0.965.

Regarding GGCCGGCAUGGUCCCAGCCUCCUCGCUGGCGCCGGCUUGGCAACAUUCCGAGGGGACCGUCCCCUCGGUAAUCGCGAAUGGGACCCA [G38U G73C], the self-cleavage was 0.169.

Regarding GGCCGGCAUGGUCCAAGCCUCCUCGCUGGCGCCGGCUGGGCAACAUUCCGAGGGGACCGUCCCCUCGGUAAGGGCGAAUGGGACCCA [C15A U72G], the self-cleavage worked out at 0.277.

As for GGCCGGCAUGGUCCCAGCCUCCUCGCUGGCACCGGCUGGGCAACAUUCUGAGGGGACCGUCCCCUCGGUAAUGGCGAAUGGGACCCA [G31A C49U], the self-cleavage worked out at 0.404.

In the case of GGCCGGCAUGGUCGCAGCCUCCUCGCUGGAGCCGGCUGGGCAACAUUCCGAGGGGACCGUCCCCUCGGUAAUGGCGAAUGGGACCCA [C14G C30A], the self-cleavage amounted to 0.0396.

Regarding GGCCGGCAUGGUCCCAGCCUCCUCGCUGGCGACGGCUGGUCAACAUUCCGAGGGGACCGUCCCCUCGGUAAUGGCGAAUGGGACCCA [C32A G40U], the self-cleavage worked out at 0.22.

Regarding GGCCGGGAUGGUCCCAUCCUCCUCGCUGGCGCCGGCUGGGCAACAUUCCGAGGGGACCGUCCCCUCGGUAAUGGCGAAUGGGACCCA [C7G G17U], the self-cleavage worked out at 0.
